# In patent US20130266566A1 (AbbVie / Abbott, published 2013):
# Substitutions are numbered along the chain they refer to.
# T1: rat PAI-1 (rat, UniProt P20961 24-402)
# T1 sequence: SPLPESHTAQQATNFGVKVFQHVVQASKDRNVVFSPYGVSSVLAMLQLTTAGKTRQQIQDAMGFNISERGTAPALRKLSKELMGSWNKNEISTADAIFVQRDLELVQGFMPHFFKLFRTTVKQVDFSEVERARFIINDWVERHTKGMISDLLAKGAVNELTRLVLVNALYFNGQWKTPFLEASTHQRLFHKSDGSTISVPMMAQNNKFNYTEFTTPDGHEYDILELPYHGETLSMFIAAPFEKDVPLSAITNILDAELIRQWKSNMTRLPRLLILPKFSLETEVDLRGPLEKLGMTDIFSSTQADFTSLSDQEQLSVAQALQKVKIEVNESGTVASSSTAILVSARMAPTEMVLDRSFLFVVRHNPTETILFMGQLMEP
# T2: mouse PAI-1 (mouse, UniProt P22777 24-401)
# T2 sequence: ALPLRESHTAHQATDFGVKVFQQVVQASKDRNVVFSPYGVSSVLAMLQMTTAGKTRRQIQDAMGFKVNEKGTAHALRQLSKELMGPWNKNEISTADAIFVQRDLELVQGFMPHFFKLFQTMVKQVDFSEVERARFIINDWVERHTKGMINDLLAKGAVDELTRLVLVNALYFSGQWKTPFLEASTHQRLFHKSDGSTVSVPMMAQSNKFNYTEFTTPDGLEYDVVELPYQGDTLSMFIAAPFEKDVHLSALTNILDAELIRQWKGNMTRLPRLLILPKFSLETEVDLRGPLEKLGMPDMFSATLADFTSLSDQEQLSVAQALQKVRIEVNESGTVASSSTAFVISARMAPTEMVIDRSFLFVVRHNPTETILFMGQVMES
# B1: Antibody 04 scFv (scFv)
# chain: QVRLQQSGAEVKKPGSSVKVSCKASGGTFSSYAISWVRQAPGQGLEWMGGIIPTFGTANYAQKFRGRVTITANESTSTAYMELSGLRSEDTAVYYCAREKRQWLEGRFDYWGRGTLVTVSSDIQMTQSPSFLSASIGDRITITCRASEGIYHSLAWYQQKPGKAPKLLIHRATSLASGTPSRFGGSGSGTDFALTISSLQPDDFATYYCQQYSNYPLTFGGGTKLEIK
# B2: Antibody 02 IgG1, not germlined (antibody, V domains shown)
# VH: QVQLVQSGAEVKKPGSSVKVSCKASGGTFSSYAISWVRQAPGQGLEWMGGIIPTFGTANYAQKFQGRVTITADESTSTAYMELSSLRSEDTAVYYCAREKRQWLEGHFDYWGRGTLVTVSS
# VL: DIQMTQSPSTLSASVGDRVTITCRASEGIYHSLAWYQQKPGKAPKLLIYKASSLASGVPSRFSGSGSGTEFTLTISSLQPDDFATYYCQQYSDYPLTFGGGTKVEIK
# B3: Antibody 01 IgG1, not germlined (antibody, V domains shown)
# VH: B2 VH with T54I
# VL: B2 VL with H31R, D93N
# B4: Antibody 02 scFv (scFv)
# chain: QVQLVQSGAEVKKPGSSVKVSCKASGGTFSSYAISWVRQAPGQGLEWMGGIIPTFGTANYAQKFQGRVTITADESTSTAYMELSSLRSEDTAVYYCAREKRQWLEGHFDYWGRGTLVTVSSDIQMTQSPSTLSASVGDRVTITCRASEGIYHSLAWYQQKPGKAPKLLIYKASSLASGVPSRFSGSGSGTEFTLTISSLQPDDFATYYCQQYSDYPLTFGGGTKVEIK
# B5: Antibody 11 scFv (scFv)
# chain: QVQLQQSGAEVKKPGSSVKVSCKASGGTFSSYAISWMRQAPGQGLEWMGGIIPIFGTANYAQKFQGRVTITADESTSTAYMELSGLRSEDTAVYYCAREKRQWLEGHFDYWGRGTPVTVSSDIQMIQSPSFLSASTGDRVTITCQASEGIYHELAWYQQKPGKAPKLLIYRASSLASGAPSRFSGSGSGTDFTLTISSLQPDDFATYYCQQYSNYPLTFGGGTKLEIK
# B6: Antibody 03 scFv (scFv)
# chain: B5 chain with M37V, I54T, I126T, T136I, Q145R, H152R, E153S, R171K, S198G
# B7: Antibody 26 scFv (scFv)
# chain: B5 chain with S16T, M37V, G85S, I126T, T136I, Q145R, E153T
# B8: Antibody 25 scFv (scFv)
# chain: B5 chain with M37V, I54T, K100R, R113Q, I126T, T136I, Q145R, G149S, R171K, D191A
# B9: Antibody 12 scFv (scFv)
# chain: B5 chain with M37V, I54T, G56P, I126T, T136I, Q145R, E153N
# B10: Antibody 05 scFv (scFv)
# chain: B5 chain with M37V, I54T, G56S, Q65R, I126T, T136I, Q145R, E153Q
# B11: Antibody 17 scFv (scFv)
# chain: B5 chain with M37V, I54T, I126T, T136I, Q145R
# B12: Antibody 23 scFv (scFv)
# chain: B5 chain with M37V, I54T, G66S, I126T, T136I, Q145R, E153S
# B13: Antibody 21 scFv (scFv)
# chain: B5 chain with Q1P, M37V, I54T, I126A, T136I, Q145R, E153N
# B14: Antibody 19 scFv (scFv)
# chain: B5 chain with M37V, G56D, K100R, Q124R, I126T, T136I, Q145R, D191E
# B15: Antibody 13 scFv (scFv)
# chain: B5 chain with M37V, I54T, G85D, I126T, T136I, Q145R, E153S
# B16: Antibody 22 scFv (scFv)
# chain: B5 chain with S31G, M37V, I54T, A61S, I126T, P129L, T136I, Q145R, E153A
# B17: Antibody 24 scFv (scFv)
# chain: B5 chain with M37V, I54T, G56V, T69S, I126T, T136I, Q145R, E153A
# B18: Antibody 18 scFv (scFv)
# chain: B5 chain with M37V, I54T, F64L, I126T, T136I, Q145R, E153A
# Biological target: T1, rat PAI-1
# Assay: cell-based or functional assay
Chromogenic (IC50 in nM) rat [nM],Chromogenic IC50 ratio rat/human [fold],Binder
340,51.4,B1
–,317,B2
–,66.2,B3
530,891,B4
59.5,0.6,B5
297,165,B6
245,61.4,B7
322,24.6,B8
78.2,34.4,B9
860,172,B10
24.9,0.3,B11
376,229,B12
49.2,12,B13
7.9,0.3,B14
140,48.6,B15
406,81.2,B16
127,39.3,B17

# Biological target: T2, mouse PAI-1
# Assay: cell-based or functional assay
Chromogenic (IC50 in nM) mouse [nM],Chromogenic IC50 ratio mouse/human [fold],Binder
264,39.9,B1
–,104,B2
–,20,B3
553,929,B4
33.6,0.3,B5
54.9,30.5,B6
211,52.9,B7
172,13.1,B8
27.8,12.2,B9
718,144,B10
26.2,0.4,B11
376,229,B12
319,255,B18
32.2,7.9,B13
6.4,0.2,B14
247,85.8,B15
413,82.6,B16
140,43.3,B17

# Biological target: active human PAI-1, recombinant, wild-type, non-glycosylated (E. coli) (human, UniProt P05121 24-402)
# Assay: cell-based or functional assay
row,Chromogenic (IC50 in nM) human [nM],Binder
1,6.6,B1
2,0.6,B4
3,102,B5
4,1.8,B6
5,4,B7
6,13.1,B8
7,2.3,B9
8,5,B10
9,71.5,B11
10,1.6,B12
11,4.1,B13
12,26,B14
13,2.9,B15
14,5,B16
15,3.2,B17

# Biological target: cynomolgus PAI-1 (cynomolgus, UniProt P05121 24-402 (human entry), limits assumed)
# Assay: cell-based or functional assay
Chromogenic (IC50 in nM) cyno [nM],Chromogenic IC50 ratio cyno/human [fold],Binder
2.1,0.3,B1
–,0.4,B3
1.1,1.8,B4
43.8,0.4,B5
0.1,0.1,B6
1.2,0.3,B7
4.6,0.4,B8
0.6,0.3,B9
0.5,0.1,B10
41.5,0.6,B11
0.5,0.3,B12
0.5,0.4,B18
1.6,0.4,B13
10.8,0.4,B14
1.2,0.4,B15
1.5,0.3,B16
1.1,0.3,B17
